Tested on: healthy Balb/c mice
Assay: Toxicity study, histopathology (5-point grade); 3 i.v. injections at 7-day interval; control group 2 = 3× 1200 pmol [175Lu]Lu-NeoB; treatment groups 1/2/3 = 3× 40 MBq/400 pmol, 80 MBq/800 pmol, 120 MBq/1200 pmol [177Lu]Lu-NeoB
Assay type: in vivo, mouse
Description: Five different experimental groups (10 male and 10 female healthy animals per group; n = 100) were included in the radiotoxicity study and treated as follows: control group 1: 3 × vehicle (PBS + kolliphor HS 15 (1 mg/mL)); control group 2: 3 × 1200 pmol [^175Lu]Lu-NeoB; treatment group 1: 3 × 40 MBq/400 pmol [^177Lu]Lu-NeoB; treatment group 2: 3 × 80 MBq/800 pmol [^177Lu]Lu-NeoB; and treatment group 3: 3 × 120 MBq/1200 pmol [^177Lu]Lu-NeoB.
Animals received 3 injections with an interval of 7 days between each injection.
At 5, 19, and 43 weeks after the first injection, 3–4 male and 3–4 female animals of each group were sacrificed by isoflurane overdose after a blood sample was taken by retro-orbital puncture. Hereafter, the axillary lymph nodes, mesenteric lymph nodes, skin, mammary fat pad, sternum, pancreas, adrenal glands, kidneys, spleen, liver, gallbladder, stomach, duodenum, jejunum, ileum, caecum, colon, rectum, testes (M), epididymis (M), seminal vesicles (M), prostate gland (M), ovaries (F), oviducts (F), uterus-cervix (F), vagina (F), bladder, ureters, sciatic nerve, skeletal muscle, femur, lungs, trachea, esophagus, thymus, thyroid gland, aorta, heart, brain, pituitary gland, eyes, harderian glands, tongue, spinal column, and the tail were collected and analyzed macroscopically. All organs and tissues were formalin fixed (4% buffered formaldehyde) and shipped to the European Research Biology Centre (ERBC, Pomezia, Rome, Italy) where histological sampling, embedding, sectioning (5 µm thick), and hematoxylin–eosin staining were performed according to standard guidelines. All organs and tissues were analyzed microscopically by an experienced pathologist. A 5-point grading scale was used: 1: minimal change, 2: mild change, 3: moderate change, 4: marked change, 5: severe change.

[1] = female wk 5, treatment group 1, grade 1
[2] = female wk 5, treatment group 1, grade 2
[3] = female wk 5, treatment group 2, grade 1
[4] = female wk 5, treatment group 2, grade 2
[5] = female wk 5, treatment group 3, grade 1
[6] = female wk 5, treatment group 3, grade 2
[7] = female wk 19, treatment group 1, grade 1
[8] = female wk 19, treatment group 1, grade 2
[9] = female wk 19, treatment group 2, grade 1
[10] = female wk 19, treatment group 2, grade 2
[11] = female wk 19, treatment group 3, grade 1
[12] = female wk 19, treatment group 3, grade 2
[13] = female wk 43, treatment group 1, grade 1
[14] = female wk 43, treatment group 1, grade 4
[15] = female wk 43, treatment group 2, grade 1
[16] = female wk 43, treatment group 2, grade 2
[17] = female wk 43, treatment group 3, grade 2
[18] = female wk 43, treatment group 3, grade 3
[19] = female wk 43, treatment group 3, grade 4
[20] = male wk 5, treatment group 1, grade 1
[21] = male wk 5, treatment group 1, grade 2
[22] = male wk 5, treatment group 3, grade 1
[23] = male wk 5, treatment group 3, grade 2
[24] = male wk 19, treatment group 1, grade 1
[25] = male wk 19, treatment group 1, grade 2
[26] = male wk 19, treatment group 2, grade 1
[27] = male wk 19, treatment group 2, grade 2
[28] = male wk 19, treatment group 3, grade 1
[29] = male wk 19, treatment group 3, grade 2
[30] = male wk 43, treatment group 1, grade 1
[31] = male wk 43, treatment group 1, grade 2
[32] = male wk 43, treatment group 2, grade 1
[33] = male wk 43, treatment group 2, grade 2
[34] = male wk 43, treatment group 3, grade 1
[35] = male wk 43, treatment group 3, grade 2
[36] = male wk 43, treatment group 3, grade 3
[37] = week 19, male treatment group 2

CC(C)CC(CC(C)C)NC(=O)[C@H](Cc1cnc[nH]1)NC(=O)CNC(=O)[C@@H](NC(=O)[C@H](C)NC(=O)[C@H](Cc1c[nH]c2ccccc12)NC(=O)[C@H](CCC(N)=O)NC(=O)[C@@H](Cc1ccccc1)NC(=O)COCC(=O)Nc1ccc(CNC(=O)CN2CCN(CC(=O)O)CCN(CC(=O)O)CCN(CC(=O)O)CC2)cc1)C(C)C [[^177Lu]Lu-NeoB, metal not drawn]
Adrenal glands subcapsular cell hyperplasia, incidence [1]: 1/3 | Urinary bladder inflammatory cell foci, incidence [1]: 1/3 | Adrenal glands subcapsular cell hyperplasia, incidence [2]: 1/3 | Spleen extramedullary haematopoiesis, incidence [2]: 2/3 | Adrenal glands subcapsular cell hyperplasia, incidence [3]: 3/3 | Liver inflammatory cell foci, incidence [3]: 1/3 | Urinary bladder inflammatory cell foci, incidence [3]: 1/3 | Urinary bladder urothelium vacuolation, incidence [3]: 2/3 | Urinary bladder inflammatory cell foci, incidence [4]: 2/3 | Urinary bladder urothelium vacuolation, incidence [4]: 1/3 | Adrenal glands subcapsular cell hyperplasia, incidence [5]: 1/3 | Liver inflammatory cell foci, incidence [5]: 1/3 | Thyroid gland follicular cyst/s, incidence [5]: 1/3 | Urinary bladder inflammatory cell foci, incidence [5]: 1/3 | Urinary bladder urothelium vacuolation, incidence [5]: 1/3 | Spleen extramedullary haematopoiesis, incidence [6]: 1/3 | Urinary bladder inflammatory cell foci, incidence [6]: 2/3 | Urinary bladder urothelium vacuolation, incidence [6]: 2/3 | Brain artifacts, incidence (female wk 5, treatment group 3, grade 3): 1/3 | Adrenal glands subcapsular cell hyperplasia, incidence [7]: 1/3 | Liver inflammatory cell foci, incidence [7]: 1/3 | Pancreas inflammatory cell foci, incidence [7]: 2/3 | Urinary bladder inflammatory cell foci, incidence [7]: 2/3 | Urinary bladder urothelium vacuolation, incidence [7]: 2/3 | Adrenal glands subcapsular cell hyperplasia, incidence [8]: 2/3 | Liver inflammatory cell foci, incidence [8]: 1/3 | Urinary bladder inflammatory cell foci, incidence [8]: 1/3 | Kidneys hydronephrosis, incidence (female wk 19, treatment group 1, grade 4): 1/3 | Adrenal glands subcapsular cell hyperplasia, incidence [9]: 2/3 | Liver inflammatory cell foci, incidence [9]: 2/3 | Pancreas inflammatory cell foci, incidence [9]: 1/3 | Urinary bladder inflammatory cell foci, incidence [9]: 2/3 | Urinary bladder urothelium vacuolation, incidence [9]: 2/3 | Adrenal glands subcapsular cell hyperplasia, incidence [10]: 1/3 | Spleen extramedullary haematopoiesis, incidence [10]: 1/3 | Urinary bladder urothelium vacuolation, incidence [10]: 1/3 | Adrenal glands subcapsular cell hyperplasia, incidence [11]: 1/3 | Pancreas inflammatory cell foci, incidence [11]: 1/3 | Urinary bladder inflammatory cell foci, incidence [11]: 1/3 | Urinary bladder urothelium vacuolation, incidence [11]: 1/3 | Adrenal glands subcapsular cell hyperplasia, incidence [12]: 2/3 | Kidneys nephropathy, incidence [12]: 1/3 | Pancreas inflammatory cell foci, incidence [12]: 1/3 | Ureter(s) dilatation, incidence [12]: 1/3 | Urinary bladder inflammatory cell foci, incidence [12]: 1/3 | Urinary bladder urothelium vacuolation, incidence [12]: 1/3 | Urinary bladder inflammatory cell foci, incidence (female wk 19, treatment group 3, grade 3): 1/3 | Kidneys hydronephrosis, incidence (female wk 19, treatment group 3, grade 4): 3/3 | Urinary bladder inflammatory cell foci, incidence [13]: 1/3 | Urinary bladder urothelium vacuolation, incidence [13]: 1/3 | Adrenal glands subcapsular cell hyperplasia, incidence (female wk 43, treatment group 1, grade 2): 2/3 | Adrenal glands subcapsular cell hyperplasia, incidence (female wk 43, treatment group 1, grade 3): 1/3 | Ovaries atrophy, incidence [14]: 3/3 | Uterus endometrial hyperplasia, incidence [14]: 3/3 | Liver inflammatory cell foci, incidence [15]: 3/4 | Urinary bladder inflammatory cell foci, incidence [15]: 1/4 | Urinary bladder urothelium vacuolation, incidence [15]: 1/4 | Adrenal glands subcapsular cell hyperplasia, incidence [16]: 3/4 | Lungs alveolar epithelialization, incidence [16]: 1/4 | Adrenal glands subcapsular cell hyperplasia, incidence (female wk 43, treatment group 2, grade 3): 1/4 | Ovaries atrophy, incidence (female wk 43, treatment group 2, grade 4): 3/4 | Kidneys hydronephrosis, incidence (female wk 43, treatment group 2, grade 5): 1/4 | Adrenal glands subcapsular cell hyperplasia, incidence [17]: 4/4 | Pancreas inflammatory cell foci, incidence [17]: 1/4 | Urinary bladder mineralization, incidence [17]: 1/4 | Lungs B-adenoma, incidence [18]: 1/4 | Ureter(s) dilation, incidence [18]: 1/4 | Kidneys hydronephrosis, incidence [19]: 1/4 | Ovaries atrophy, incidence [19]: 4/4 | Kidneys hydronephrosis, incidence (female wk 43, treatment group 3, grade 5): 1/4 | Adrenal glands subcapsular cell hyperplasia, incidence [20]: 1/3 | Pancreas acinar cell degeneration, incidence [20]: 1/3 | Spleen extramedullary haematopoiesis, incidence [21]: 2/3 | Testes germ cell depletion, incidence [21]: 1/3 | Thyroid gland ectopic thymus, incidence (male wk 5, treatment group 1, grade 3): 1/3 | Testes germ cell depletion, incidence (male wk 5, treatment group 2, grade 1): 1/3 | Thyroid gland ectopic thymus, incidence (male wk 5, treatment group 2, grade 3): 1/3 | Prostate gland inflammatory cell foci, incidence [22]: 2/3 | Testes germ cell depletion, incidence [22]: 1/3 | Urinary bladder inflammatory cell foci, incidence [22]: 3/3 | Urinary bladder urothelium vacuolation, incidence [22]: 2/3 | Heart inflammatory cell foci, incidence [23]: 1/3 | Pancreas mineralization, incidence [23]: 1/3 | Urinary bladder mineralization, incidence [23]: 1/3 | Urinary bladder urothelium vacuolation, incidence [23]: 1/3 | Adrenal glands subcapsular cell hyperplasia, incidence [24]: 1/3 | Testes germ cell depletion, incidence [24]: 2/3 | Adrenal glands subcapsular cell hyperplasia, incidence [25]: 1/3 | Spleen extramedullary haematopoiesis, incidence [25]: 1/3 | Thyroid gland ectopic thymus, incidence (male wk 19, treatment group 1, grade 3): 1/3 | Adrenal glands subcapsular cell hyperplasia, incidence [26]: 1/3 | Urinary bladder inflammatory cell foci, incidence [26]: 2/3 | Urinary bladder urothelium vacuolation, incidence [26]: 3/3 | Adrenal glands subcapsular cell hyperplasia, incidence [27]: 1/3 | Pancreas inflammatory cell foci, incidence [27]: 2/3 | Kidneys hydronephrosis, incidence (male wk 19, treatment group 2, grade 3): 1/3 | Kidneys hydronephrosis, incidence (male wk 19, treatment group 2, grade 4): 2/3 | Adrenal glands subcapsular cell hyperplasia, incidence [28]: 2/3 | Urinary bladder urothelium vacuolation, incidence [28]: 1/3 | Adrenal glands subcapsular cell hyperplasia, incidence [29]: 1/3 | Spleen extramedullary haematopoiesis, incidence [29]: 1/3 | Thyroid gland ectopic thymus, incidence (male wk 19, treatment group 3, grade 3): 1/3 | Kidneys hydronephrosis, incidence (male wk 19, treatment group 3, grade 4): 2/3 | Adrenal glands subcapsular cell hyperplasia, incidence [30]: 2/3 | Kidneys inflammatory cell foci, incidence [30]: 1/3 | Kidneys nephropathy, incidence [30]: 2/3 | Pancreas acinar cell degeneration, incidence [30]: 1/3 | Pancreas inflammatory cell foci, incidence [30]: 1/3 | Skin inflammatory cell foci, incidence [30]: 1/3 | Skin scab formulation, incidence [30]: 1/3 | Urinary bladder inflammatory cell foci, incidence [30]: 1/3 | Adrenal glands subcapsular cell hyperplasia, incidence [31]: 1/3 | Pancreas inflammatory cell foci, incidence [31]: 2/3 | Adrenal glands subcapsular cell hyperplasia, incidence [32]: 2/4 | Kidneys nephropathy, incidence [32]: 1/4 | Urinary bladder inflammatory cell foci, incidence [32]: 2/4 | Urinary bladder urothelium vacuolation, incidence [32]: 1/4 | Adrenal glands subcapsular cell hyperplasia, incidence [33]: 1/4 | Kidneys nephropathy, incidence [33]: 1/4 | Pancreas inflammatory cell foci, incidence [33]: 2/4 | Urinary bladder inflammatory cell foci, incidence [33]: 1/4 | Adrenal glands subcapsular cell hyperplasia, incidence (male wk 43, treatment group 2, grade 3): 1/4 | Kidneys hydronephrosis, incidence (male wk 43, treatment group 2, grade 4): 2/4 | Adrenal glands subcapsular cell hyperplasia, incidence [34]: 3/4 | Kidneys nephropathy, incidence [34]: 1/4 | Liver inflammatory cell foci, incidence [34]: 2/4 | Pancreas inflammatory cell foci, incidence [34]: 2/4 | Skin inflammatory cell foci, incidence [34]: 1/4 | Testes germ cell depletion, incidence [34]: 1/4 | Adrenal glands subcapsular cell hyperplasia, incidence [35]: 1/4 | Kidneys cyst/s, incidence [35]: 1/4 | Epididymides spermatic granuloma, incidence [36]: 1/4 | Ureter(s) dilation, incidence [36]: 1/4 | Kidneys hydronephrosis, incidence (male wk 43, treatment group 3, grade 4): 3/4 | Cytoplasmic vacuolation of urothelial cells, incidence (week 5, female treatment group 2, minimal or mild): 3/3 | Cytoplasmic vacuolation of urothelial cells, incidence (week 5, female treatment group 3, minimal or mild): 3/3 | Cytoplasmic vacuolation of urothelial cells, incidence (week 5, male treatment group 3, minimal or mild): 3/3 | Cytoplasmic vacuolation of urothelial cells, incidence (week 19, all female treatment groups): 7/9 | Hydronephrosis, incidence (week 19, female treatment group 1): 1/3 | Hydronephrosis, incidence (week 19, female treatment group 3): 3/3 | Cytoplasmic vacuolation of urothelial cells, incidence [37]: 3/3 | Hydronephrosis, incidence [37]: 3/3 | Hydronephrosis, incidence (week 19, male treatment group 3): 2/3 | Marked ovarian atrophy, incidence (week 43, all treated females): 10/11 | Marked or severe hydronephrosis, incidence (week 43, female treatment group 2): 1/4 | Marked or severe hydronephrosis, incidence (week 43, female treatment group 3): 2/4 | Marked or severe hydronephrosis, incidence (week 43, male treatment group 2): 2/4 | Marked or severe hydronephrosis, incidence (week 43, male treatment group 3): 3/4
